Results taken from patent US20220025021A1 (BETH ISRAEL DEACONESS MEDICAL CENTER, published 2022).

Tests used:
Assay in all cases: cell-based or functional assay
[1] = biological target: HIV-1 Env of pseudovirus CNE52 (HIV-1)
[2] = biological target: HIV-1 Env of pseudovirus 0260.v5.c36 (HIV-1)
[3] = biological target: HIV-1 Env of pseudovirus SC422661.8 (HIV-1)
[4] = biological target: HIV-1 Env of pseudovirus BB1012-11.TC21 (HIV-1)
[5] = biological target: HIV-1 Env of pseudovirus RHPA4259.7 (HIV-1)
[6] = biological target: HIV-1 Env of pseudovirus Du172.17 (HIV-1)

Binder | neutralization IC50 [1] | neutralization IC80 [1] | neutralization IC50 [2] | neutralization IC80 [2] | neutralization IC50 [3] | neutralization IC80 [3] | neutralization IC50 [4] | neutralization IC80 [4] | neutralization IC50 [5] | neutralization IC80 [5] | neutralization IC50 [6] | neutralization IC80 [6]
MS-86 (antibody) VH: not shown VL: DFVLTQSPHSLSVTPGESASISCKSSHSLIHGDRNNYLAWYVQKPGRSPQLLIYLASSRASGVPDRFSGSGSDKDFTLKISRVETEDVGTYYCMQGRESPWTFGQGTKVDIKRTVAAPSVFIFPPSDEQLKSGTASVVCLLNNFYPREAKVQWKVDNALQSGNSQESVTEQDSKDSTYSLSSTLTLSKADYEKHKVYACEVTHQGLSSPVTKSFNRGEC | 1.46 µg/mL | 13.3 µg/mL | 0.036 µg/mL | 0.191 µg/mL | 1.2 µg/mL | > 25 µg/mL | 0.048 µg/mL | 0.159 µg/mL | 0.305 µg/mL | 1.1 µg/mL | 4.94 µg/mL | 18.8 µg/mL
MS-79 (antibody, V domains shown) VH: QVQLVQSGPEVRKPGTSVKVSCKAPGNTLKTYDLHWVRSVPGQGLQWMGWISHEGDKKVIVERFKAKVTITWDRSTNTAYLQLSGLTSGDTAVYYCAKGSKHRLRDYALYDDDGALNWAVDVDYLSNLEFWGQGTAVTVSS VL: DFVLTQSPHSLSVTPGESASISCKSSHSLIHGDRNNYLAWYVQKPGRSPQLLIYLASSRASGVPDRFSGSGSDKDFTLKISRVETEDVGTYYCMQGRESPWTFGQGTKVDIKR | 2.42 µg/mL | > 25 µg/mL | 0.028 µg/mL | 0.159 µg/mL | 0.587 µg/mL | > 25 µg/mL | 0.019 µg/mL | 0.08 µg/mL | 0.221 µg/mL | 0.792 µg/mL | 7.28 µg/mL | > 25 µg/mL
MS-84 (antibody, V domains shown) VH: QVQLVQSGPEVRKPGTSVKVSCKAPGNTLKTYDLHWVRSVPGQGLQWMGWISHEGDKKVIVERFKAKVTIDWDRSTNTAYLQLSGLRSGDTAVYYCAKGSKHRLRDYALYDDDGALNWAVDVDYLSNLEFWGQGTAVTVSS VL: DFVLTQSPLSLPVTPGEPASISCKSSHSLIHGDRNNYLAWYVQKPGQSPQLLIYLASSRASGVPDRFSGSGSDKDFTLKISRVEAEDVGVYYCMQGRESPWTFGQGTKVDIKR | 0.092 µg/mL | 0.83 µg/mL | 0.016 µg/mL | 0.062 µg/mL | 0.192 µg/mL | 1.37 µg/mL | 0.019 µg/mL | 0.085 µg/mL | 0.175 µg/mL | 0.773 µg/mL | 1.64 µg/mL | 6.55 µg/mL
MS-85 (antibody, V domains shown) VH: QVQLVQSGPEVRKPGTSVKVSCKAPGNTLKTYDLHWVRSVPGQGLQWMGWISHEGDKKVIVERFKAKVTIDWDRSTNTAYLQLSGLTSGDTAVYYCAKGSKHRLRDYALYDDDGALNWAVDVDYLSNLEFWGQGTAVTVSS VL: DIVLTQSPHSLSVTPGESASISCKSSHSLIHGDRNNYLAWYVQKPGRSPQLLIYLASSRASGVPDRFSGSGSGTDFTLKISRVETEDVGTYYCMQGRESPWTFGQGTKVDIKR | 0.341 µg/mL | 4.71 µg/mL | 0.019 µg/mL | 0.059 µg/mL | 0.54 µg/mL | 7.04 µg/mL | 0.028 µg/mL | 0.124 µg/mL | 0.173 µg/mL | 0.794 µg/mL | 2.23 µg/mL | 9.53 µg/mL
MS-80 (antibody, V domains shown) VH: QVQLVQSGPEVRKPGTSVKVSCKAPGNTLKTYDLHWVRSVPGQGLQWMGWISHEGDKKVIVERFKAKVTIDRDRSTNTAYLQLSGLTSGDTAVYYCAKGSKHRLRDYALYDDDGALNWAVDVDYLSNLEFWGQGTAVTVSS VL: DFVLTQSPHSLSVTPGESASISCKSSHSLIHGDRNNYLAWYVQKPGRSPQLLIYLASSRASGVPDRFSGSGSDKDFTLKISRVETEDVGTYYCMQGRESPWTFGQGTKVDIKR | 5.25 µg/mL | > 25 µg/mL | 0.041 µg/mL | 0.321 µg/mL | 0.451 µg/mL | > 25 µg/mL | 0.02 µg/mL | 0.086 µg/mL | 0.267 µg/mL | 1.24 µg/mL | 15.2 µg/mL | > 25 µg/mL
MS-87 (antibody, V domains shown) VH: QVQLVQSGPEVRKPGTSVKVSCKAPGNTLKTYDLHWVRSVPGQGLQWMGWISHEGDKKVIVERFKAKVTITRDRSTNTAYLQLSGLTSGDTAVYYCAKGSKHRLRDYALYDDDGALNWAVDVDYLSNLEFWGQGTAVTVSS VL: DFVLTQSPHSLSVTPGESASISCKSSHSLIHGDRNNYLAWYVQKPGRSPQLLIYLASSRASGVPDRFSGSGSDKDFTLKISRVETEDVGTYYCMQGRESPWTFGQGTKVDIKR | 2.69 µg/mL | > 25 µg/mL | 0.114 µg/mL | 1.01 µg/mL | 0.711 µg/mL | 13.9 µg/mL | 0.023 µg/mL | 0.102 µg/mL | 0.294 µg/mL | 1.09 µg/mL | > 25 µg/mL | > 25 µg/mL
MS-83 (antibody, V domains shown) VH: QVQLVQSGPEVRKPGTSVKVSCKAPGNTLKTYDLHWVRSVPGQGLQWMGWISHEGDKKVIVERFKAKVTIDWDRSTNTAYLQLSGLTSGDTAVYYCAKGSKHRLRDYALYDDEGALNWAVDVDYLSNLEFWGQGTAVTVSS VL: DFVLTQSPHSLSVTPGESASISCKSSHSLIHGDRNNYLAWYVQKPGRSPQLLIYLASSRASGVPDRFSGSGSDKDFTLKISRVETEDVGTYYCMQGRESPWTFGQGTKVDIKR | 0.135 µg/mL | 1.04 µg/mL | 0.023 µg/mL | 0.087 µg/mL | 0.267 µg/mL | 2.11 µg/mL | 0.018 µg/mL | 0.082 µg/mL | 0.15 µg/mL | 0.663 µg/mL | 1.47 µg/mL | 7.4 µg/mL
MS-82 (antibody, V domains shown) VH: QVQLVQSGPEVRKPGTSVKVSCKAPGNTLKTYDLHWVRSVPGQGLQWMGWISHEGDKKVIVERFKAKVTIDWDRSTNTAYLQLSGLRSGDTAVYYCAKGSKHRLRDYALYDDDGALNWAVDVDYLSNLEFWGQGTAVTVSS VL: DFVLTQSPHSLSVTPGESASISCKSSHSLIHGDRNNYLAWYVQKPGRSPQLLIYLASSRASGVPDRFSGSGSDKDFTLKISRVETEDVGTYYCMQGRESPWTFGQGTKVDIKR | 0.206 µg/mL | 1.18 µg/mL | 0.016 µg/mL | 0.051 µg/mL | 0.387 µg/mL | 3.29 µg/mL | 0.023 µg/mL | 0.108 µg/mL | 0.192 µg/mL | 0.672 µg/mL | 1.88 µg/mL | 7 µg/mL
MS-81 (antibody, V domains shown) VH: QVQLVQSGPEVRKPGTSVKVSCKAPGNTLKTYDLHWVRSVPGQGLQWMGWISHEGDKKVIVERFKAKVTIDWDRSTNTAYLELSGLTSGDTAVYYCAKGSKHRLRDYALYDDDGALNWAVDVDYLSNLEFWGQGTAVTVSS VL: DFVLTQSPHSLSVTPGESASISCKSSHSLIHGDRNNYLAWYVQKPGRSPQLLIYLASSRASGVPDRFSGSGSDKDFTLKISRVETEDVGTYYCMQGRESPWTFGQGTKVDIKR | 0.212 µg/mL | 1.8 µg/mL | 0.02 µg/mL | 0.075 µg/mL | 0.418 µg/mL | 4.25 µg/mL | 0.024 µg/mL | 0.102 µg/mL | 0.202 µg/mL | 0.897 µg/mL | 1.65 µg/mL | 6.37 µg/mL
